PMC3239198
Where two headings read alike, the source gives them in different places.

Assays:
[1] = biological target: His-tagged TetR (Tet repressor) (UniProt P04483); assay: competition EMSA
[2] = biological target: His-tagged TetR (Tet repressor) (UniProt P04483); assay: competition EMSA; remark: listed apart in the source
[3] = biological target: His-tagged TetR (Tet repressor) (UniProt P04483); assay: EMSA

Chain of His-tagged TetR (Tet repressor) (P04483 whole entry): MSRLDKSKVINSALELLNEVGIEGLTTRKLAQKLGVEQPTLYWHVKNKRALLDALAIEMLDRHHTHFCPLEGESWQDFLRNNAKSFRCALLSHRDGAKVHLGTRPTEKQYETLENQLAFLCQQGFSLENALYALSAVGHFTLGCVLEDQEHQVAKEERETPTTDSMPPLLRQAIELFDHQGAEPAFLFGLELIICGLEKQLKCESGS

Sequence	Ki [1] [nM]	Ki [2] [nM]	Kd [3] [nM]
GGGAGAUACGCGUAUCAAGCAGCAUGUUAUGGGUCAUCACAGACCAGAGAAAAGCUUGAUACGCGAAAGGAG [TetR aptamer 12-1R (pDA1), active]	76	58	–
TTGACACTCTATCATTGATAGAGTTAT (double strand) [tetO dsDNA (ODA68/ODA69)]	–	–	60
